# From paper PMC3228830, “Targeted Proteolysis of Plectin Isoform 1a Accounts for Hemidesmosome Dysfunction in Mice Mimicking the Dominant Skin Blistering Disease EBS-Ogna” (PLoS Genetics, 2011)
# B1: His-tagged wild-type plectin rod domain (pNV10) (domain or fragment)
# chain: IKFISETLRRMEEEERLAEQQRAEERERLAEVEAALEKQRQLAEAHAQAKAQAELEAQELQRRMQEEVARREEAAVDAQQQKRSIQEELQHLRQSSEAEIQAKAQQVEAAERSRMRIEEEIRVVRLQLETTERQRGGAEGELQALRARAEEAEAQKRQAQEEAERLRRQVQDESQRKRQAEAELALRVKAEAEAAREKQRALQALDELRLQAEEAERRLRQAEAERARQVQVALETAQRSAEVELQSKRASFAEKTAQLERTLQEEHVTVAQLREEAERRAQQQAEAERAREEAERELERWQLKANEALRLRLQAEEVAQQKSLAQADAEKQKEEAEREARRRGKAEEQAVRQRELAEQELEKQRQLAEGTAQQRLAAEQELIRLRAETEQGEQQRQLLEEELARLQHEATAATQKRQELEAELAKVRAEMEVLLASKARAEEESRSTSEKSKQRLEAEAGRFRELAEEAARLRALAEEAKRQRQLAEEDAARQRAEAERVLTEKLAAISEATRLKTEAEIALKEKEAENERLRRLAEDEAFQRRRLEEQAALHKADIEERLAQLRKASESELERQKGLVEDTLRQRRQVEEEIMALKVSFEKAAAGKAELELELGRIRSNAEDTMRSKEQAELEAARQRQLAAEEEQRRREAEERVQRSLAAEEEAARQRKVALEEVERLKAKVEEARRLRERAEQESARQLQLAQEAAQKRLQAEEKAHAFVVQQREEELQQTLQQEQNMLDRLRSEAEAARRAAEEAEEAREQAEREAAQSRKQVEEAERLKQSAEEQAQAQAQAQAAAEKLRKEAEQEAARRAQAEQAALKQKQAADAEMEKHKKFAEQTLRQKAQVEQELTTLRLQLEETDHQKSILDEELQRLKAEVTEAARQRSQVEEELFSVRVQMEELGKLKARIEAENRALILRDKDNTQRFLEEEAEKMKQVAEEAARLSVAAQEAARLRQLAEEDLAQQRALAEKMLKEKMQAVQEATRLKAEAELLQQQKELAQEQARRLQEDKEQMAQQLVEETQGFQRTLEAERQRQLEMSAEAERLKLRMAEMSRAQARAEEDAQRFRKQAEEIGEKLHRTELATQEKVTLVQTLEIQRQQSDHDAERLREAIAELEREKEKLKQEAKLLQLKSEEMQTVQQEQILQETQALQKSFLSEKDSLLQRERFIEQEKAKLEQLFQDEVAKAKQLREEQQRQQQQMEQEKQELMASMEEARRRQREAEEGVRRKQEELQHLEQQRQQQEKLLAEENQRLRERLQRLEEEHRAALAHSEIATT
# Target: the molecule itself
# Assay: SEC-MALS; Superose 6 10/300 GL column, 0.5 ml/min, protein 2 mg/ml, load 75 ul
protein,measurement,value
B1,stoichiometry N,2
